Test results from publication PMC7794242, “Cryo-EM analysis of the HCoV-229E spike glycoprotein reveals dynamic prefusion conformational changes” (Nature Communications, 2021).

Experiments:
[1] = target: T1, HCoV-229E S glycoprotein wild-type soluble ectodomain (residues 1-1116) with C-terminal GCN4 trimerization … (HCoV-229E, UniProt P15423 16-1116); experiment: SPR; OpenSPR; hAPN immobilised on COOH sensor chip; S trimer peak 2 sample injected at 0, 6.25, 12.5, 25 and 50 nM; HBS-EP+ buffer; 298 K; one-to-one binding model; settings: both partners purified
[2] = target: T1, HCoV-229E S glycoprotein wild-type …; experiment: SPR; OpenSPR; hAPN immobilised on COOH sensor chip; S trimer peak 3 sample injected at 0, 3.13, 6.25, 12.5 and 25 nM; HBS-EP+ buffer; 298 K; one-to-one binding model; settings: both partners purified

B1: human aminopeptidase N (receptor)
chain: DQSKAWNRYRLPNTLKPDSYRVTLRPYLTPNDRGLYVFKGSSTVRFTCKEATDVIIIHSKKLNYTLSQGHRVVLRGVGGSQPPDIDKTELVEPTEYLVVHLKGSLVKDSQYEMDSEFEGELADDLAGFYRSEYMEGNVRKVVATTQMQAADARKSFPCFDEPAMKAEFNITLIHPKDLTALSNMLPKGPSTPLPEDPNWNVTEFHTTPKMSTYLLAFIVSEFDYVEKQASNGVLIRIWARPSAIAAGHGDYALNVTGPILNFFAGHYDTPYPLPKSDQIGLPDFNAGAMENWGLVTYRENSLLFDPLSSSSSNKERVVTVIAHELAHQWFGNLVTIEWWNDLWLNEGFASYVEYLGADYAEPTWNLKDLMVLNDVYRVMAVDALASSHPLSTPASEINTPAQISELFDAISYSKGASVLRMLSSFLSEDVFKQGLASYLHTFAYQNTIYLNLWDHLQEAVNNRSIQLPTTVRDIMNRWTLQMGFPVITVDTSTGTLSQEHFLLDPDSNVTRPSEFNYVWIVPITSIRDGRQQQDYWLIDVRAQNDLFSTSGNEWVLLNLNVTGYYRVNYDEENWRKIQTQLQRDHSAIPVINRAQIINDAFNLASAHKVPVTLALNNTLFLIEERQYMPWEAALSSLSYFKLMFDRSEVYGPMKNYLKKQVTPLFIHFRNNTNNWREIPENLMDQYSEVNAISTACSNGVPECEEMVSGLFKQWMENPNNNPIHPNLRSTVYCNAIAQGGEEEWDFAWEQFRNATLVNEADKLRAALACSKELWILNRYLSYTLNPDLIRKQDATSTIISITNNVIGQGLVWDFVQSNWKKLFNDYGGGSFSFSNLIQAVTRRFSTEYELQQLEQFKKDNEETGFGSGTRALEQALEKTKANIKWVKENKEVVLQWFTENSK
- Kd [1]: 0.0363 µM
- koff [1]: 0.00115 s⁻¹
- kon [1]: 31800 M⁻¹ s⁻¹
- Kd [2]: 0.00678 µM
- koff [2]: 0.000485 s⁻¹
- kon [2]: 71500 M⁻¹ s⁻¹
